Data as given in patent publication US20260365692A1, “COMPOSITIONS COMPRISING PROTEINS DISSOLVED IN FLUORINATED SOLVENTS, AND METHODS OF MAKING AND USING THE SAME” (priority 2022, published 2026).

Columns and labels:
[1] = target: T1, BSA (Bos taurus, UniProt P02769); assay: 19F NMR of PFNA with BSA; format: binding, bovine
Text: This further supported the conclusion that, like TFE, adsorption of PFNA to protein surfaces aligned the fluorinated tail parallel to the solvent accessible exterior, with further stabilization via F . . . H bonding with surface N—H groups (FIG. 12, FIGS. 12A-12E, and FIG. 13). This ultimately generated the fluorine rich coating that altered water accessibility and promoted secondary structure.

[2] = test system: HepG2 cells; assay: HepG2 MTT viability assay (Example 2); format: cell-based, human; details: Homo sapiens, HepG2, 37 °C overnight
Procedure: FIG. 28 depicts a viability assay for HepG2 cells treated with two first generation compounds and two second generation compounds.
Next, viability assays were performed by seeding HepG2 (liver cancer cell line) onto 96 well plates and allowing the cells to adhere overnight. DMEM cell culture media containing various concentrations of each FTag compound were then added, and the plates were incubated at 37 °C overnight. The supernatant was then removed and MTT viability dyes were added to each well and allowed to convert for 2 hours. Dye absorbance for each condition was then compared to positive (20% DMSO) and negative (blank media) controls to calculate % viability (FIG. 28).

[3] = target: T1, BSA; assay: Isothermal titration calorimetry, BSA; format: binding, bovine
Text: To test this assertion, PFNA binding to three exemplary proteins, BSA, β-Gal and IgG, was studied via isothermal titration calorimetry (ITC) and surface plasmon resonance (SPR) techniques. […] SPR analysis yielded similar results, with sensorgrams (FIGS. 14J-14L) that diverged from a simple 1:1 ligand-protein model. […] Similar phenomenon may explain the negative signals of the SPR data and further support the ability of PFNA to modulate the conformational plasticity of adsorbed proteins.

[4] = target: bovine serum albumin (BSA) (Bos taurus, UniProt P02769); assay: Circular dichroism with PFNA, BSA
Text: FIGS. 14A-14L depict circular dichroism spectra of Hb (FIG. 14A), GFP (FIG. 14B), BSA (FIG. 14C), β-Gal (FIG. 14D), rabbit serum IgG (FIG. 14E), transferrin (FIG. 14F), and urease (FIG. 14G) in the absence (black line) or presence (dashed lines) of PFNA. Increasing dash sequence indicated higher concentration of PFNA. FIG. 14H: Change in molar ellipticity at 216 nm (Δθ216) of PFNA-treated proteins, relative to native controls, as a function of increasing ligand concentration. FIG. 14I: Percentage change in secondary structural motifs of Hb, β-Gal and IgG between the native protein and 1 mM PFNA treated samples. β-sheet structures were further differentiated into parallel and antiparallel conformations. Hb, β-Gal and IgG were prioritized for analysis based on their significant spectral shift in the presence of 1 mM PFNA. FIGS. 14J-14L: Sensograms for BSA (FIG. 14J), β-gal (FIG. 14K), and IgG (FIG. 14L) showing relative response (R.U.) at 10, 25, 50, 75, and 100 μM.
To explore PFNA-mediated changes in protein structure, dose-response circular dichroism (CD) studies were performed (FIG. 14A-14G). […] Remarkably, these structural changes endured even at sub-stoichiometric PFNA:protein ratios (see 0.001 mM PFNA in […]; protein concentration was constant at 0.01 mM).

[5] = Acute toxicity in C57BL/6J mice (Example 3); format: in vivo; details: 24 h
Procedure: (§1) Two groups (n=5) of C57BL/6J mice received […] of 10 μM solutions of β-Gal that was either 1) prepared in sterile PBS or 2) dissolved in PFOc (1 mM PFNA) and extracted into sterile PBS. Due to the large solution volumes given (150 μL, ~15% of mouse blood volume), PFOc dispersed proteins were extracted into sterile saline before injection to avoid hyponatremia. Samples were administered by tail vein injection.
To assess acute toxicity, animals were intravenously administered solutions of β-Gal either prepared in sterile PBS or dissolved in PFOc (1 mM PFNA) and extracted into sterile PBS, as described above. After 24 hours, mice were sacrificed, and blood was collected via cardiac puncture. A minimum of 100 μL of whole blood was added to EDTA for complete blood count. The remainder was centrifuged (1000 rcf, 10 minutes) to isolate serum for chemistry analysis. Tissues (lungs, livers, kidneys, and spleens) from euthanized animals were collected and stored in 10% buffered-formalin immediately after euthanasia. […] from each organ were mounted onto glass slides and stained with Hematoxylin and Eosin (H&E). Four random fields in each section were examined under a microscope at 5× and 40× magnification. Tissue relevant clinical features were compared across samples. […]

[6] = Pharmacokinetics of β-Gal formulations in C57BL/6 mice (Example 4); format: in vivo; details: i.v.
Text: FIG. 55 depicts time-dependent enzymatic activity of β-Gal in plasma delivered systemically in either saline (β-GalSaline) or extracted PFOc (β-GalExt. PFOc). Data shown as average±s.d. of n=5 technical replicates. Statistical significance determined using Student's t-test and represented as n.s.=not significant, * p<0.05.
To test whether PD-7 coating and PFOc dispersion influences the pharmacokinetic properties of formulated proteins, f-Gal formulations were intravenously administered to C57BL/6 mice and monitored time dependent serum bioavailability (FIG. 55). This experiment utilized a fluorescent conversion substrate to monitor the amount of functional protein in serum, thereby investigating changes to both bioavailability and bioactivity. Due to the large solution volumes administered (150 μL, ~15% of mouse blood volume), PFOc dispersed proteins were extracted into sterile saline before injection to avoid hyponatremia. Future applications in larger mammals would allow direct injection of the fluorous dispersion, without pre-extraction, due to the increased blood volumes and bio-inert nature of most perfluorocarbon solvents. […] However, variance in the data yielded statistical significance only at the t=0 hr and t=3 hr time points.

[7] = Pharmacokinetics of β-Gal in C57BL/6J mice (Example 3); format: in vivo; details: i.v. tail vein
Procedure: as §1
At a series of time points, mice were sacrificed, and blood samples collected via cardiac puncture. Bioactivity and bioavailability of β-Gal was determined by conversion of the fluorescent substrate, 4-Methylumbelliferyl-[…] (β-GAL). Whole blood collected in a serum tube was centrifuged at 2000 rcf for 4 minutes to extract serum containing β-Gal protein. 20 μL of the serum was then mixed with 180 μL μ-GAL (for a final substrate concentration of 1 μM). Samples were quickly pipette mixed and incubated in the dark at room temperature for 5 minutes. Fluorescent intensity was measured with λex=360 nm and λem=440 nm. The background fluorescent intensity from serum was determined from serum dilution in PBS without μ-GAL substrate.

[8] = native β-Gal administered in saline

T1 sequence (P02769 25-607): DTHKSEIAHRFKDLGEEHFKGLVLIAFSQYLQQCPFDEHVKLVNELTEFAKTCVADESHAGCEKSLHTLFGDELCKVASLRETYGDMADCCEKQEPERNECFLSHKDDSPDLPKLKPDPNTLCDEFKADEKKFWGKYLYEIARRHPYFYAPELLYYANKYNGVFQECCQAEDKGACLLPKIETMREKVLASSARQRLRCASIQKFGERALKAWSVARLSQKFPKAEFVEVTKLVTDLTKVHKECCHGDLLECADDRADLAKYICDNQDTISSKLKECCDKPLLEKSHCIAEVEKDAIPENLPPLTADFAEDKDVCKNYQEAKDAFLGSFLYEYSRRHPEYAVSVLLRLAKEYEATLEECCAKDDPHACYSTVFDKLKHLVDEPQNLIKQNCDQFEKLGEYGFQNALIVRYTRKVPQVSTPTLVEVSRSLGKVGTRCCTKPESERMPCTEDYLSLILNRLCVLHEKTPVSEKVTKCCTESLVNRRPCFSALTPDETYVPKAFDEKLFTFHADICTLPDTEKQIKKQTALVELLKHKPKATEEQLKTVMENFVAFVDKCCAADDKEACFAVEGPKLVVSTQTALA
Sequence of bovine serum albumin (BSA) (P02769 25-607): as above

| Compound | 19F NMR peak change upon interaction [1] | IC50 [2] [µM] | evolution of heat (ITC) [3] | CD structural profile, BSA [4] | BUN, RBC, HGB, HCT versus sham saline injection control ([5]; PFOc β-Gal, i.v.) | histologic organ analyses ([5]; lung, kidney, liver, spleen, β-Gal from PFOc) | serum half-life t1/2 [6, 8] [min] | serum half-life t1/2 ([6]; β-Gal from PFOc formulations, extracted into saline) [min] | serum half-life t1/2 [7, 8] [min] | serum half-life t1/2 ([7]; β-Gal delivered from PFOc dispersion (1 mM PFNA), extracted into saline) [min] |
| --- | --- | --- | --- | --- | --- | --- | --- | --- | --- | --- |
| O=C(O)C(F)(F)C(F)(F)C(F)(F)C(F)(F)C(F)(F)C(F)(F)C(F)(F)C(F)(F)F [Compound 7, perfluoronanonic acid] | broadening of PFNA's peaks | 540 | no significant evolution of heat | remained largely unchanged | – | – | – | – | – | – |
| β-Gal: β-Galactosidase (β-Gal), dissolved in PBS/saline or dispersed in PFOc | – | – | – | – | none of these markers were statistically different | did not identify signs of necrosis, cellular infiltration, inflammation, or hemorrhage | 7.2 | 30 | 6.6 | 7.9 |
